Source: IntAct's records for PubMed 26840340

B1: Islet amyloid polypeptide (Homo sapiens), P10997 (parent)
chain: MGILKLQVFLIVLSVALNHLKATPIESHQVEKRKCNTATCATQRLANFLVHSSNNFGAILSSTNVGSNTYGKRNAVEVLKREPLNYLPL

Variants of: B1
Conditions: with bace1_human BACE1, P56817
bace1_human BACE1, P56817, sequence (P56817 whole entry): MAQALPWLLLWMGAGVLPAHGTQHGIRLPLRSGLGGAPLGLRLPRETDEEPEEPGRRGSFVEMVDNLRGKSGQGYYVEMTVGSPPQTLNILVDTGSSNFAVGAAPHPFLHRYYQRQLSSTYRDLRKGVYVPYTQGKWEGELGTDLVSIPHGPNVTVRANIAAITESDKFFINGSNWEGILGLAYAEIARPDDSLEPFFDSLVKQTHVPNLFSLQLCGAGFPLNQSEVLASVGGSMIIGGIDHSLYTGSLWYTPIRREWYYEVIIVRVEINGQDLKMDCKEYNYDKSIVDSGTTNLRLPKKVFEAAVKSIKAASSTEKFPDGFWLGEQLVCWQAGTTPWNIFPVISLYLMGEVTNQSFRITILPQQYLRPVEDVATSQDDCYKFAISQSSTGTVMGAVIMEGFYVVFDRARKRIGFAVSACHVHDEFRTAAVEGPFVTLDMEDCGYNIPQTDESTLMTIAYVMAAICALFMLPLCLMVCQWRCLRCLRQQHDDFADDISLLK

Row | Variant | effect of a mutation on the interaction
1 | MGILKLQVFLIVLSVALNHLKATPIESHQVEKRKCNTATCATQRLANFLVHSSNNKGAILSSTNVGSNTYGKRNAVEVLKREPLNYLPL | with no effect
